Experimental data taken from US12491324B2, “Droplet device with inertial filtering” (PNEUMA RESPIRATORY, INC., priority 2016, dated 2025).
“And” between values parts separate entries of the source, which are not always exact repeats. Identical values can stand only once.

Columns and labels:
Format in all cases: physicochemical
[1] = Anderson Cascade Impactor testing of droplet delivery device with Albuterol sulfate (Example B); details: Albuterol 0.5%, 28.3 lpm
Text: FIGS. 21A-21E provide a summary of the test results.

[2] = Insulin stability after aerosol generation, size exclusion chromatography (SEC)
Text: Size Exclusion Chromatography (SEC): Alternately, to determine the stability of active agent after droplet generation, the generated stream of droplets including the active agent may be collected and SEC-HPLIC may be employed to monitor for any changes in large molecule aggregation and protein fragment content. Soluble protein aggregates and protein fragment content may be calculated by comparing respective peak area under the SEC-HPLC curve of dispensed protein solutions with controls (solutions remaining in the device reservoir).
Drug solutions for testing include Enbrel, (ENBREL® single-use prefilled syringes in 25 mg (0.51 mL of a 50 mg/mL solution of etanercept), and insulin, (Humalog, 200 units/ml, 3 ml kwikpens)
Aerosol collection and SEC is performed in a similar fashion as for the Enbrel analysis and aerosol collection.
Fifty microliters of the collected aerosol spray is injected onto the SEC column for analysis, while 50 mcl of the Kwikpen insulin solution is injected onto the SEC column for control samples.

[3] = Gel electrophoresis of active agent after droplet generation; details: 'will show'
Text: Gel Electrophoresis: To determine the stability of active agent after droplet generation, the generated stream of droplets including the active agent is collected and the molecular weight of the active agent is verified using gel electrophoresis.

[4] = Enbrel stability after aerosol generation, size exclusion chromatography (SEC)
Text: Size Exclusion Chromatography (SEC): Alternately, to determine the stability of active agent after droplet generation, the generated stream of droplets including the active agent may be collected and […] may be employed to monitor for any changes in large molecule aggregation and protein fragment content. Soluble protein aggregates and protein fragment content may be calculated by comparing respective peak area under the SEC-HPLC curve of dispensed protein solutions with controls (solutions remaining in the device reservoir). Drug solutions for testing include Enbrel, (ENBREL® single-use prefilled syringes in 25 mg (0.51 mL of a 50 mg/mL solution of etanercept), and insulin, (Humalog, 200 units/ml, 3 ml […] is performed with a YarraTM 3 μm SEC-2000 LC column 300×7.8 mm, SecurityGuard cartridge kit and SecurityGuard cartridges GFC-2000, 4×3 mm ID. Fifty microliters of Enbrel from the syringe (ENBREL® single-use prefilled syringes in 25 mg/0.51 mL of a 50 mg/mL solution of etanercept) is diluted (4:1) (4 parts, 200 mcl of the mobile phase buffer solution to 1 part, 50 mcl Enbrel from syringe). Fifty microliter of the diluted Enbrel is injected and separation was performed at a flow rate of 1.0 ml/min. The mobile phase buffer system included a PHOS. BUFF. SALINE. […] UV detection is performed at 280 nm. […] An ampule/cartridge is filled with either 0.20 ml of Enbrel® (50 mg/ml) diluted 4:1 (10 mg/ml) (4 parts (200 mcl) of PBS and 0.025% NaN3 and 1 part (50 mcl of Enbrel solution from the syringe). After 20 actuations and aerosolization, about 150 mcl of the aerosolized Enbrel solution is recovered and collected in the polypropylene tube located below the ejector mechanism. The control consists of the diluted Enbrel solution, 50 mcl of which is injected into the SEC column for analysis.

[5] = aerosolized samples S1, S2 (summary table)
[6] = control, Enbrel diluted 4:1 (10 mg/ml), SEC UV 280 nm

Substance: Albuterol sulfate
- Cum. % < ([1]; FILTER stage, 10 actuations): 0.00%
- Cum. % > ([1]; FILTER stage, 10 actuations): 100.00%
- Coarse ([1]; summary of deposition): 22.7
- Fine ([1]; summary of deposition): 3.5
- Mouthpiece ([1]; summary of deposition): 12.2
- Respirable ([1]; summary of deposition): 69.3
- Throat ([1]; summary of deposition): 4.6

Substance: Insulin: insulin, Humalog, 200 units/ml, 3 ml kwikpens
- Peak 3 [2, 5]: 2.797 and 2.184
- Peak 3 Peak Area % ([2]; control, Insulin from Kwikpen 200 U/ml, SEC): 0%
- ejected dose forming a fragment ([2]; fragment eluting at ~25 minutes): 2.5%

Substance: adalimumab
- change in the electrophoretic mobility, and hence the molecular weight, post-aerosol vs control [3]: negligible change

Substance: bevacizumab
- change in the electrophoretic mobility, and hence the molecular weight, post-aerosol vs control [3]: negligible change

Substance: etanercept [Enbrel]
- Peak 4 [4, 5]: 0.357 and 0.352
- Peak 5 [4, 5]: 5.123 and 3.428
- Peak 4 Peak Area % [4, 6]: 0%
- Peak 5 Peak Area % [4, 6]: 0%
- dose leading to formation of molecular fragments ([4]; fragments with elution times of 13 and 25 minutes): 4.6%
- change in the electrophoretic mobility, and hence the molecular weight, post-aerosol vs control [3]: negligible change
